Columns and labels:
PYL3-nLUC = target: T1, PYL3-nLUC (Arabidopsis thaliana, UniProt Q9SSM7 1-209); experiment: firefly luciferase complementation in protoplasts (stronger group)
T1 construct: LUC complementation assay in protoplasts; also called PYLs-nLUC; not shown: N-terminal domain of firefly luciferase
T1 sequence: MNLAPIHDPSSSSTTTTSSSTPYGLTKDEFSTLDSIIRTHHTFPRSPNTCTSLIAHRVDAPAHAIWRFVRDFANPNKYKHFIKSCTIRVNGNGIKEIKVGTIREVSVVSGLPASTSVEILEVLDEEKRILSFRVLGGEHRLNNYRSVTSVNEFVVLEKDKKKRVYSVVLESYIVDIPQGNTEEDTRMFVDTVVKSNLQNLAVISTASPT
Procedure: (§1) To further characterize the interactions between PYL13 and PYLs in vivo, their interactions in protoplasts were examined by the firefly luciferase (LUC) complementation assay. PYL13 was fused to the C-terminal domain of LUC (PYL13-cLUC), and PYLs were fused to the N-terminal domain of LUC (PYLs-nLUC), and co-expressed in protoplasts. After transfection, protoplasts were incubated overnight under light at room temperature, and the LUC activities in living protoplasts were measured. Error bars indicate s.e.m. (n=6). […] PYL13 binds more strongly to PYR1, PYL1-5, PYL7, and PYL10-11 than to PYL6, PYL8-9, or PYL13 (FIG. 5B).

PYL5-nLUC = target: T2, PYL5-nLUC (Arabidopsis thaliana, UniProt Q9FLB1 1-203); experiment: as above
T2 construct: LUC complementation assay in protoplasts; also called PYLs-nLUC; not shown: N-terminal domain of firefly luciferase
T2 sequence: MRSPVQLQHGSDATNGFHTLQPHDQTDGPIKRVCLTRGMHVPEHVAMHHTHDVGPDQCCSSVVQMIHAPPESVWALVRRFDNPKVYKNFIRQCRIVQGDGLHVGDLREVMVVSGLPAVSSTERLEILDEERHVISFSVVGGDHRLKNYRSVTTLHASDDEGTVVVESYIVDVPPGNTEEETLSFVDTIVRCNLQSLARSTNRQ
Procedure: as §1

PYL7-nLUC = target: T3, PYL7-nLUC (Arabidopsis thaliana, UniProt Q1ECF1 1-211); experiment: as above
T3 construct: LUC complementation assay in protoplasts; also called PYLs-nLUC; not shown: N-terminal domain of firefly luciferase
T3 sequence: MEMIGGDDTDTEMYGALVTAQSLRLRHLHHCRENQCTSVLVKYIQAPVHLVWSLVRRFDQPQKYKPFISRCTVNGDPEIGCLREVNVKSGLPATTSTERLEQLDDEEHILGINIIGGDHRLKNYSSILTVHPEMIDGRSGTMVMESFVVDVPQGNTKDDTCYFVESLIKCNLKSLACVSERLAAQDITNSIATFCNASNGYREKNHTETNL
Procedure: as §1

PYL10-nLUC = target: T4, PYL10-nLUC (Arabidopsis thaliana, UniProt Q8H1R0 1-183); experiment: as above
T4 construct: LUC complementation assay in protoplasts; also called PYLs-nLUC; not shown: N-terminal domain of firefly luciferase
T4 sequence: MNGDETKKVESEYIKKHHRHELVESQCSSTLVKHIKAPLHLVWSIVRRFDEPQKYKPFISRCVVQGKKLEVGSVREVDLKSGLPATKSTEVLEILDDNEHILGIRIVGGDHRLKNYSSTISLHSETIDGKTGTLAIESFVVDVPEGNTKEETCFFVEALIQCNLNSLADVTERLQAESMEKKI
Procedure: as §1

PYL4-nLUC = target: T5, PYL4-nLUC (Arabidopsis thaliana, UniProt O80920 1-207); experiment: as above
T5 construct: LUC complementation assay in protoplasts; also called PYLs-nLUC; not shown: N-terminal domain of firefly luciferase
T5 sequence: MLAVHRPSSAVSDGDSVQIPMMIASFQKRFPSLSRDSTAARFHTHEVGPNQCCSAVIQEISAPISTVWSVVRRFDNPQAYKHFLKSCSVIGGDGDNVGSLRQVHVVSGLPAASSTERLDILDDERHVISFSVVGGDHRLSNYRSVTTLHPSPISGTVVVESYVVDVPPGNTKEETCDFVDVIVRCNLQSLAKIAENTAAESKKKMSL
Procedure: as §1

PYR1-nLUC = target: T6, PYR1-nLUC (Arabidopsis thaliana, UniProt O49686 1-191); experiment: as above
T6 construct: LUC complementation assay in protoplasts; also called PYLs-nLUC; not shown: N-terminal domain of firefly luciferase
T6 sequence: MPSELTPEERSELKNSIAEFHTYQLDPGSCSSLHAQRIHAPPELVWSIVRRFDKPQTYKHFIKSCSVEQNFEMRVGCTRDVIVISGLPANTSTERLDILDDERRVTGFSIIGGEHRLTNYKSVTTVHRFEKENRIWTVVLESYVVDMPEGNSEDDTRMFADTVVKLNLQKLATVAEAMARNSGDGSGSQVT
Procedure: as §1

PYL8-nLUC = target: T7, PYL8-nLUC (Arabidopsis thaliana, UniProt Q9FGM1 1-188); experiment: firefly luciferase complementation in protoplasts (weaker group)
T7 construct: LUC complementation assay in protoplasts; also called PYLs-nLUC; not shown: N-terminal domain of firefly luciferase
T7 sequence: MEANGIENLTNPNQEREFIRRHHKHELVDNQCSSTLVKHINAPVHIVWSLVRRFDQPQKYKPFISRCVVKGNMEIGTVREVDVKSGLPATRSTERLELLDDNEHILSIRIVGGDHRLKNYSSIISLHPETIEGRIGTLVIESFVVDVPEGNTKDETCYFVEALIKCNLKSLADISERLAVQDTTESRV
Procedure: as §1

PYL6-nLUC = target: T8, PYL6-nLUC (Arabidopsis thaliana, UniProt Q8S8E3 1-215); experiment: as above
T8 construct: LUC complementation assay in protoplasts; also called PYLs-nLUC; not shown: N-terminal domain of firefly luciferase
T8 sequence: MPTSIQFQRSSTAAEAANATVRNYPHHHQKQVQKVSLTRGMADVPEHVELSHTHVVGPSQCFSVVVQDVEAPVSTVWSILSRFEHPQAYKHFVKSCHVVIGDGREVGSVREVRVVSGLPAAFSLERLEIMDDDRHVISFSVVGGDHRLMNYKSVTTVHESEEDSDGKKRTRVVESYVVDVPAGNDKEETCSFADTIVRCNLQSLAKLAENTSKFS
Procedure: as §1

PYL13-nLUC = target: T9, PYL13-nLUC (Arabidopsis thaliana, UniProt Q9SN51 1-164); experiment: firefly luciferase complementation in protoplasts (weaker group; PYL13 with itself)
T9 construct: LUC complementation assay in protoplasts; also called PYL13 fused to the N-terminal domain of LUC; not shown: N-terminal domain of firefly luciferase
T9 sequence: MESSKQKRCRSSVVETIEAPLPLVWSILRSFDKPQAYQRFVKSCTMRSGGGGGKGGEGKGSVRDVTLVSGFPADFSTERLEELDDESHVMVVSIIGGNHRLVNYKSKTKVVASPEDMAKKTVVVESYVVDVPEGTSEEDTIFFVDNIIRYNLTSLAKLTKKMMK
Procedure: as §1

[1] = target: T10, HAI2 fused to the GAL4-activating domain (AD) (Arabidopsis, UniProt Q9LNW3 1-442); experiment: yeast two-hybrid, growth on media lacking His and His/Ade, with and without ABA (ABA-independent)
T10 construct: Yeast two-hybrid construct
T10 sequence (looked up): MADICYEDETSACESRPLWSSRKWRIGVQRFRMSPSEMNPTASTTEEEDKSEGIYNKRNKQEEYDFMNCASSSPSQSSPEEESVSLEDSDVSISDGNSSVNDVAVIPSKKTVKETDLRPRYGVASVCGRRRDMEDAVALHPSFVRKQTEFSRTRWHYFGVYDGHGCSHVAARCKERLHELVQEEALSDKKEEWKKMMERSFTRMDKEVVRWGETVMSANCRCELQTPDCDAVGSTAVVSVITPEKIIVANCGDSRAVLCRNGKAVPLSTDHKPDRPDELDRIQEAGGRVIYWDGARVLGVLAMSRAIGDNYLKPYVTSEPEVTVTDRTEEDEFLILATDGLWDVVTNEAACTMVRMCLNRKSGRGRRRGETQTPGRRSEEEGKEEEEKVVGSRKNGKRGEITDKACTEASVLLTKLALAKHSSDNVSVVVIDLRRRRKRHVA
Procedure: To investigate how PYL13 may function in plants, the interaction between PYL13 and clade A PP2Cs in yeast two-hybrid assays was examined, as shown in FIG. 3. […] PYL13 binds strongly with ABI1, ABI2, PP2CA, and HAI2 but weakly with HAB1 and HAI1 (FIG. 3A). […] PYL13 fused to the GAL4-DNA-binding domain (BD) was used as […]. Interaction was determined by growth assay on media lacking His and His/Ade in the presence and absence of ABA. Dilutions (10⁻¹, 10⁻², and 10⁻³) of saturated cultures were spotted onto the plates, which were photographed after 5 days.

Measured: binding result

B1: PYL13-cLUC (other)
chain: T9 sequence
notes: LUC complementation assay in protoplasts; also called PYL13 fused to the C-terminal domain of LUC; not shown: C-terminal domain of firefly luciferase
not listed: [1]
binds: all other assays above

B2: PYL13 fused to the GAL4-DNA-binding domain (BD) (other, not shown: small tags and cut ends)
chain: T9 sequence
notes: also called BD-PYL13
binds: [1]

Source: patent US20150074844A1 (PURDUE RESEARCH FOUNDATION, published 2015)
